Results taken from doi:10.1101/524447.

Target: Integrin β3 cytoplasmic tail peptide (human (from the printed UniProt ID))
Test: SPR

Kd [µM] | Substance
3 | Syk tandem SH2 (tSH2) fragment, amino acids 9-264 (from UniProt P43405 9-264) (domain or fragment)
25 | Syk C-terminal SH2 domain with the IA segment (IA-C-SH2) (domain or fragment)
130 | Syk N-terminal SH2 domain alone (N-SH2) (domain or fragment)
8 | Syk N-terminal SH2 domain with the IA segment (N-SH2+IA) (domain or fragment)
